Experimental findings from the DeepSol protein solubility set are described below.

This series in a line: soluble on expression in E. coli; label from the status in PepcDB or PDB records.
As to “MTTIPVTSIAAEPAVSCSTCAACCCQLEVMLITDTGVPERFIDTDDWGGEVMRRLDDGWCAALDRDSMRCSIYELRPLICREFELGEADCLSERRGIATAYRLEHHHHHH”, the “soluble on expression in E. coli” value is reported as “not soluble”.
Turning to “MSLLSGDETLTVYLARVLSCPELFRVSTPEEARRIAEKILSGEIEPPLEFFGLRRDAVNEVLAVTDGPAGENVAPVGLRVRGDSIVVNLYPGSRTYENFVRTEELTACIVPDPIRFLKALSKELAIETVGDGTKVAEGTRAYLELEAKEIHEGKPLTAELQVVGWGLLHPRPRALVRGESALLEALVELTRIHLDEDHVDACKRALEVVKRTIWSEEYQWAVEKVERELRGKEDGPDHQDTSPRIRRATGEGHHHHHH”, the “soluble on expression in E. coli” value is “soluble”.
For “GPGSMNRDPDNGLWYATLRGRTLLGEEVQLPESGIVGMTTVTTSKPSCSPFPTPASLSTFPPQIAEVGELEMVDEVFIEACAPRYVVWDHGRAPSPAASLLQWMMLAEVLHGPSKWAQGEGDTSL”, the “soluble on expression in E. coli” value was “not soluble”.
The same measure for “MSGIKSLELLLQSMSPELMAGDYVFCTVNGALSDYLSLEPIATFREPEGLTLVLEAEKAQQAGLESSALFSLITLTVHSSLEAVGLTAAFATKLAEHGISANVIAGYYHDHIFVQKEKAQQALQALGEFAQA”: “soluble”; for “GELPEKSKLQEIYQELTRLKAAVGELPEKSKLQEIYQELTRLKAAVGELPEKSKLQEIYQELTRLKAAVGELPEKSKLQEIYQELTRLKAAVGELPEKSKLQEIYQELTELKAAVGELPEKSKLQEIYQELTQLKAAVGELPDQSKQQQIYQELTDLKTAFERLGHH”: “soluble”; for “MGSDKIHHHHHHMKHIGIIDVGSNSVRLLFAEITSKSSFKILTEFKEYVRLGSGFDSKGNITDNKIDSLISVLNLYKNFCNRFEDTEMVVTATEAFRRAKNQESIIQTVKNNLNLNIRVLSGEEEAYYDYFAAINTLDIKDGLIMDIGGSSTELILVANRTLKECVSLQFGAITLIEKFNIKDSIDEKQEKMLKDFLLESFSSIPWLKSISSTTLIGIGGSIRNIGKISKKQKDYPLNLIHNYIMPAKSAEDIYNDVKNKTLEQRKKIKGLSKDRADIFVGASLAVSMLVNILSINEIIICRNGLREGLLLSKLFHKKPIDNILDFSINNVLINNSINITHSFHVYKLTSLLFSSLQSVHKINISLDKVIKTASMFHNAGVNISYYYHHRHSAYIILNSSLYGISHKECVMSACIDIYQRSENIQSMLNEYGNMLEKEDIYAIKVIGILLRIAENLDKDLSGSIYDLKCIVDDAVVIIKTYSKEPSDFLISEAQNSSGLFKNTFNKSLYIV”: “not soluble”.
“MSLKWIDSHIHVDQYKDEEKSRLLKDVENSKEIQGLIAVSMNYQSSKEILSLAKRYSFVHPAVGFHPEQPIHKEECEKIYKLIEDHVEDIVAIGEVGLPYYLRKEDEHIAINSYISVLQRFVELASKYDLPIVLHAVYEDADVVCDLLEKHKVSRAHFHWFKGSETTMERMMRNGYYISITPDVLHKEKIRKIVSYYPLEYMMVETDGPWGFQEGVMTHPGMIREVLKEISVIKNVAVDKVAETIYENTIQFYLKGEGHHHHHH”: the “soluble on expression in E. coli” value is given as “soluble”.
As for “MGSDKIHHHHHHMKMATTHQSSTKQDILEYLHKHEKATALELAEVLDVTPQAIRRHLKDLETEELVLYSTSVQAAGMGRPQHLYELSRQGRDRLHRTMSDRFGDASGNFAVSLLDTLAETVGHDQFKSILEKQWQRKAKEYRDRVGNGSLRERVANLVELRKAEGFMAEYHAVDVNDTFESDRFILMEHNCAISNVAESFPSICGHELEMFAAVLPDCTVERTHWIIDGEHRCGYLVQVRH”, the “soluble on expression in E. coli” value is recorded as “not soluble”.
As to “GPGSMHKDGPRLWDDTLVEAERIATDSKARYLQLPTPDREAEMQRTRSQFFLLLRERVRNTYLRRISKFNPGEPLTWKYISGRKKASLPSPTSMLLGDGQHTYKTARRAANALNRIFLPFHPSHKAVRFSKGINRQSASLNINASFLFGQQNNNESAATSTSGSSLPSSSESQDKNEAATTSGLVAHLHSPLDAPFNRTELLAALRNTPYGKAPGPDEVYSEALRHISSKGLRFLLRCINHSWTTGTIPVEWRRATIVPLLKPGKSPELLESYRPISLTSIVSKVAEKMVLKRLLWVWTPHPHQYAYRSMRTTTMQLAHLIHDVEHNRNHYFQVSLPKKSGIGNQLHYRPHRTLLVLVDFSKAFDSIDHRVLSRLLANIPGVNCRRWLRNFLCGRYAKTRVGHRHSDRRPMLRGVPQGSVL”, the “soluble on expression in E. coli” value is on record as “not soluble”.
The same measure for “SNAMTEEHVVLLDEQDKPSGTLEKYAAHTLNTPLHLAFSCWLFNEDGQLLVTRRSLSKKAWPGVWTNSVCGHPQQGETTEEAIIRRCRFELGVEITDLTPVYPHFSYRATDPNGIVENEVCPVFAARATSVLQVNSEEVMDYQWSEFKSVWKSLLATPWAFSPWMVMQASDEQARERLLNYCQR”: “soluble”.
“MNIRDLEYLVALAEHRHFRRAADSCHVSQPTLSGQIRKLEDELGVMLLERTSRKVLFTQAGMLLVDQARTVLREVKVLKEMASQQGETMSGPLHIGLIPTVGPYLLPHIIPMLHQTFPKLEMYLHEAQTHQLLAQLDSGKLDCVILALVKESEAFIEVPLFDEPMLLAIYEDHPWANRECVPMADLAGEKLLMLEDGHCLRDQAMGFCFEAGADEDTHFRATSLETLRNMVAAGSGITLLPALAVPPERKRDGVVYLPCIKPEPRRTIGLVYRPGSPLRSRYEQLAEAIRARMDGHFDKVLKQAV”: the “soluble on expression in E. coli” value is listed as “soluble”.
Take “MASTNCVSIQKRDILRGSGSTTWFDVLLEKGSCVTIVADDRPTVDIWLDRITHESPIAGREYCMRVDISGLKIATRCPTLGEAYLSEEHTEDYVCKRGFSDRGWGNGCGLFGKGSIVGCVKTTCKSSGIAKSYSYDIPKVKYVISTEVHKGELISGNVSASVVSATFSSEAEKHSMELEDYGRLEFTCRVVSGSNLGSVRILEIDNHYFNVHEDWLLDLPLPWRIPDGHWHDLGELIAFKEPHAVKMVAQAYGDQRASLLKSLVKAEEIAKSGNSYYLPGGHVDCRVSLVNLKLKGTTYPYCGDSFVWKRRPTATHHGTVAMEVTYQGTDVPCKVSVIVEKDGQNGGNAGSLITSNPIITAQGSSVFLELEVPLGFSTIKVGAAKQQWRQDGSSIGKALETHHHHHH”: the “soluble on expression in E. coli” value was “not soluble”.
Then “MGSDKIHHHHHHMKVAYVIGGLPFGGVESWLLDLARHVSKTSDFECRVFNVSGTGVKMPEYISSGVDVVCAGNSLDSIATHRIDTVLRLRSQLVEYAPDIIHTLHFSGDYCGRLASIGLGVPVVTHLRNIKCERKLRRRLANKLLSFFTDMYLSVSRAVADMVADDHNIAKRPSRVIYNAVDPQKLAVEPHDLTAMYGVSGRIVVGVGRYVGQKNFDLLLRALRLVLDEGHDISVVLVGEGGERPHLERLIRELSLEGHAVLTGYRQDVPRFLRASYALAMPSDFEGLPITHLEAMFCGLPAIVSRHVPSLEIAREASLVCKRSPESIAQCIIRLLEDEKLHSTLSNTGSRIASEHTMDLYIKTLKGIYDELASRGKEI”, with “not soluble”; and “MKEKVFFKTFGCRTNIYDTELLKSYVKDYEIINDENKAQIIVVNSCTVTNGADSGIKSYVNTMQKKGIKVILTGCGAVSKGKELLDKKQVFGVLGASNKDKINEFLGAKTSFYELGNLNFIDKDIVCEYENHTKAFVKIQEGCDFACSYCIIPSVRGKSRSVDEKALLKQVEILGANGYSEIVLTGTNIGSYGLKNGTTLGKLLQKMGQILGIKRIRLGSLEPAQLDESFLEILDEAWLERHLHIALQHTSEKMLRIMRRRSHTDNDLKLFNTIASKGYALGTDFIVAHPGESEELWQEALRNFKEFPLTHIHAFIFSPRNNTHSATMKDVINGTLAKERLNTLKSIVEKNNYEFRKKNQVSLEVLVENQKDGFFEGYDQFFNKIKIKSDKDIAKEWIVISEYEVQEKSNFTNLKGLEHHHHHH”, with “soluble”.
Turning to “MKLSPREADGYFARPDAGKTGILIHGADAMRIALKRQQIIAALLGPGGEEEMRLTRMPGAELRKDAAQLLDAVKAVGFFPGPRVVFVEDCPETSAPAVLTALEDWQPGDAQIVVTAGQLKPSSKIRKAFETHPNAYAAGIYDDPPSRAEIERMLSAAGIRDVPPEPMTVLSDLARDLGPGDFAQTMEKLALYKLGDTAPLVLEDIAACAPRSTEAALDDVLNVVAEGKEGEIGPLIRRLQAQGTTPVSLCIGATRHFRTLYTCASAPGGPSQGIGALRPPVFGPRRDRILNQAQRWGARRLEAALTVLTDTDLALRSAGQSAPQMALVERAMIRLAWLSRSRLEHHHHHH”, the “soluble on expression in E. coli” value is given as “not soluble”.
The same measure for “MSRFPRRFIDDSSMEDAGISLCPSIHYRPINPNDLDRLEQIHRDIFPIKYESEFFQSVVNGVDIVSWAAVDRSRPDDHSDELIGFVTAKFVLAKDSEIDDLIHYDSSKGEETLIYILTLGVVETYRNRGIAMSLISEVIKYASGLSVCRGVYLHVIAHNNAAICLYKRLMFRCVRRLHGFYLINRHHFDAFLFVYFINGSRTPCSPLEVAMFVVNYMKSGIKSVASKLANKDEKGLKWLFCKDTDCV”: “soluble”; for “MGSDKIHHHHHHMDRILTFDCYGTLIDTKPVFDAISNIAKNNILNSKDAVNIYVNYEDRLMYGETYIPYDKLIKQVLEYCDMELVTNVFSKSYDEIISVHKRLKPFKEVVESLEKIHKKGYELALMSNSVHDIIDYNLDALGNVFNNVFLSEDIHAYKPQLKFFKYVEERLELKQKKHCHIAKGYWWDIVPCSKLGWRKIWVNRENKKGNKCHEPYEEVHTLDEVINLI”: “not soluble”; for “MAKIYYDEDASLDILKDKVIAILGYGSQGHAHALNLRDSGLNVIIGLHEGSRSREKAKADGFEVYTPREAAKRADIIMFLIPDTVQPEVYKNEVEPELNSSKTLAFAHGFNIHFRQIVPPKDVDVFMVAPKGPGHLVRWMYTEGKGVPALVAIHQDASGTCKDKALAYAKGIGATRAGVIETTFKEETETDLFGEQMVLCGGVTALIKAGFETLVNAGYQPEVAYFECLHELKLIVDLIYEHGISGMRYSISDTAKYGDVTRGERIYKVVKPVMEKTLEEIQKGEFAREWILENKAGRPVYYALLERDREHLVEKVGEELRKMMPWLGKKELK”: “soluble”.
In the case of “MEGEYRLTRSYAVVDITAQVDDSAILEPFACVMARARIGPRTRVGAHSVVGVGVSVGADCCIYHHVTLLNCDIGDRCVIHSGVAIGQDGFGFEVDQQTGKVRKKPQELSVRIGNEVEIGANTCIDRGSWRDTLIEDAVKIDNLVQIGHNVQVGANTFICGQAGVAGSTKIGRYCRFGGRSGAVDHLEIGDHVDVAANSVLTRNAPGHAVYAGFPAMPMREWRHQQVTLRRLSRAGKRQVDVSADDPEFPK”, the “soluble on expression in E. coli” value is recorded as “not soluble”.
Then “GSSHHHHHHSSGRENLYFQGHMPKRRKSVTGEIVLITGAGHGIGRLTAYEFAKLKSKLVLWDINKHGLEETAAKCKGLGAKVHTFVVDCSNREDIYSSAKKVKAEIGDVSILVNNAGVVYTSDLFATQDPQIEKTFEVNVLAHFWTTKAFLPAMTKNNHGHIVTVASAAGHVSVPFLLAYCSSKFAAVGFHKTLTDELAALQITGVKTTCLCPNFVNTGFIKNPSTSLGPTLEPEEVVNRLMHGILTEQKMIFIPSSIAFLTTLERILPEGS”, with “soluble”; and “MSYGLIIVLMIILGIGLWHTKKYHRAVVNQVAHVWITKNAFEHTALGMAIVSPDCRFLKVNRAYGEITGYTRPELLKMAVKELTHPEDQEKDTPYLQEVFAGNIHSFTTVKRYIHKNGSTIWVRSTISAVRTERGNLKYFVLEHHHHHH”, with “not soluble”.
